From US20050132443A1 come the findings set out here.

In the test the target is tobacco ethylene-responsive transcription factor ERF4 (tobacco) (UniProt Q40478). The test can be described thus: cell-based or functional assay.
Sequence of tobacco ethylene-responsive transcription factor ERF4 (tobacco) (Q40478 whole entry): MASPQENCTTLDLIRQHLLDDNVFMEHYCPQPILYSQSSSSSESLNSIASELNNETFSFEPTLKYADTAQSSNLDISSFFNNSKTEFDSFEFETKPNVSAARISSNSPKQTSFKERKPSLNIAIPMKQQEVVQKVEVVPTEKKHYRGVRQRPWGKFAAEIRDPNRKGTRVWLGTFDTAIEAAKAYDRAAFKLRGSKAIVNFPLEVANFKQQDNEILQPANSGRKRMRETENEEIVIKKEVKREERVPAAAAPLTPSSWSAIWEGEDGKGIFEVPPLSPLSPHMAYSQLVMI

Consider “Multiprotein Bridging Factor 1 of Oryza sativa (oMBF1)”, for which the GUS activity (pERE-GUS reporter, transient assay in tobacco leaves) turned out to be 5.5 fold.
